# From article PMC11327152, “Fully-automated production of [^68Ga]Ga-Trivehexin for clinical application and its biodistribution in healthy volunteers” (Frontiers in Oncology, 2024)
# Key:
# clinical [1] = conditions: human, in vivo, iv, total radioactivity
# Procedure: (§1) The clinical study was approved by Medical Ethics Committee, Zhongnan Hospital of Wuhan University and registered at ClinicalTrials.gov (NCT05835570). PET/CT imaging was performed using a Siemens-Biograph mCT PET/CT scanner (Siemens Healthineers, Erlangen, Germany). No special preparation was needed for [^68Ga]Ga-Trivehexin PET/CT. The injection dose was 87-122 MBq (70.7 MBq/mL, 90.9 MBq/nmol) and was determined on the basis of the patient’s weight (1.85 MBq/kg). PET/CT images were scanned from the top of the head to the upper thigh. PET data were obtained in a three-dimensional mode (matrix 200 × 200) of 6-8 bed positions (3 min/bed). Attenuation correction of PET images was performed using low-dose CT data. Image reconstruction was performed using the TrueX and time-of-flight (ultrahigh-definition PET) algorithms.
# (§2) Applications of [^68Ga]Ga-Trivehexin in 3 healthy volunteers were done with written informed consent, and details of the volunteers were shown in Supplementary Table S2 . […] The PET scan was performed at 10 min, 35 min, and 60 min after intravenous injection, without repeated CT scans. Another PET/CT imaging sequence was obtained at 150 min post-injection, as the subject had to leave the scanner for voiding. Based on human PET data, the dosimetry values were calculated using OLINDA V2.2 to calculate organ doses and effective dose (as defined by International Commission on Radiological Protection publication 103) ([14]) using the International Commission on Radiological Protection publication 89 ([15]) adult human male and female models.
# healthy volunteers [2] = assay: clinical; conditions: human, in vivo, iv
# Procedure: as §1, §2
# [3] = Stability of [^68Ga]Ga-Trivehexin in formulation (PBS), radio-HPLC; assay type: physicochemical; conditions: Phosphate Buffer Saline, 2 h co-incubation of final product
# Procedure: Radiochemical purity was evaluated by radio-HPLC and radio-TLC. For radio-HPLC, a mobile phase of H2O with 0.1% trifluoroacetic acid (TFA) (v/v, phase A) and acetonitrile with 0.1% TFA (v/v, phase B) was used with a flow rate of 1.0 mL/min and a linear elution gradient as follows: 0-5 min (0-95% A); 5-10 min (95-30% A);10-20 min (30-0% A). For radio-TLC, 0.4 M ammonium acetate solution/methanol (v/v, 1/1) (A) and 0.1 M citrate buffer (B) were used as mobile phases, respectively.
# The stability of [^68Ga]Ga-Trivehexin in formulation and serum was further evaluated in Phosphate Buffer Saline (PBS) and Fetal Bovine Serum (FBS). After co-incubation of the final product with PBS or FBS for 60 or 120 min, radio-HPLC was used for the analysis.
# healthy volunteers [4] = test system: healthy volunteers; design: species or system human; conditions: in vivo
# Procedure: as §2
# clinical [5] = conditions: human, in vivo, iv, total radioactivity; remark: listed apart in the source
smiles,measurement,setting,value
"CC(C)C[C@@H]1NC(=O)[C@H](CC(=O)O)NC(=O)CNC(=O)[C@H](CCCNC(=N)N)NC(=O)[C@H](Cc2ccc(O)cc2)NC(=O)[C@H](CCCCNC(=O)CCc2cn(CCCNC(=O)CCP(=O)(O)CN3CCN(CP(=O)(O)CCC(=O)NCCCn4cc(CCC(=O)NCCCC[C@H]5C(=O)N[C@@H](Cc6ccc(O)cc6)C(=O)N[C@@H](CCCNC(=N)N)C(=O)NCC(=O)N[C@@H](CC(=O)O)C(=O)N[C@@H](CC(C)C)C(=O)N[C@@H](C)C(=O)N[C@@H](Cc6ccc(O)cc6)C(=O)N6CCC[C@@H]6C(=O)N5C)nn4)CCN(CP(=O)(O)CCC(=O)NCCCn4cc(CCC(=O)NCCCC[C@H]5C(=O)N[C@@H](Cc6ccc(O)cc6)C(=O)N[C@@H](CCCNC(=N)N)C(=O)NCC(=O)N[C@@H](CC(=O)O)C(=O)N[C@@H](CC(C)C)C(=O)N[C@@H](C)C(=O)N[C@@H](Cc6ccc(O)cc6)C(=O)N6CCC[C@@H]6C(=O)N5C)nn4)CC3)nn2)N(C)C(=O)[C@H]2CCCN2C(=O)[C@H](Cc2ccc(O)cc2)NC(=O)[C@H](C)NC1=O [[^68Ga]Ga-Trivehexin, metal not drawn]",SUV at 1 h,clinical [1]; SUVmean ± SD Colon,1.07 ± 0.21 SUV
same,SUV at 2.5 h,clinical [1]; SUVmean ± SD Fat tissue,0.22 ± 0.1 SUV
same,SUV at 2.5 h,clinical [1]; SUVmean ± SD Kidney,21.3 ± 2 SUV
same,SUV at 1 h,clinical [1]; SUVmean ± SD Liver,0.82 ± 0.07 SUV
same,SUV at 2.5 h,clinical [1]; SUVmean ± SD Lung,0.45 ± 0.13 SUV
same,SUV at 1 h,clinical [1]; SUVmean ± SD Muscle,0.97 ± 0.1 SUV
same,SUV at 2.5 h,clinical [1]; SUVmean ± SD Myocardium,0.5 ± 0.09 SUV
same,SUV at 2.5 h,clinical [1]; SUVmean ± SD Parotid gland,0.97 ± 0.07 SUV
same,SUV at 1 h,clinical [1]; SUVmean ± SD Spinal Canal(C5),0.85 ± 0.13 SUV
same,SUV at 2.5 h,clinical [1]; SUVmean ± SD Spleen,0.55 ± 0.07 SUV
same,SUVmean ± SD Brain,healthy volunteers [2],0.01 ± 0.00
same,intact tracer remained in PBS,[3],up to 98.9%
same,Dose Adrenals,healthy volunteers [4],3.22E-02 mGy/MBq
same,Dose Brain,healthy volunteers [4],1.40E-03 mGy/MBq
same,Dose Esophagus,healthy volunteers [4],1.98E-02 mGy/MBq
same,Dose Eyes,healthy volunteers [4],4.25E-03 mGy/MBq
same,Dose Gallbladder Wall,healthy volunteers [4],2.09E-02 mGy/MBq
same,Dose Heart Wall,healthy volunteers [4],1.73E-02 mGy/MBq
same,Dose Kidneys,healthy volunteers [4],2.26E-01 mGy/MBq
same,Dose Left colon,healthy volunteers [4],1.88E-02 mGy/MBq
same,Dose Liver,healthy volunteers [4],1.58E-02 mGy/MBq
same,Dose Lungs,healthy volunteers [4],8.72E-03 mGy/MBq
same,Dose Osteogenic Cells,healthy volunteers [4],1.86E-02 mGy/MBq
same,Dose Pancreas,healthy volunteers [4],1.96E-02 mGy/MBq
same,Dose Prostate,healthy volunteers [4],1.77E-02 mGy/MBq
same,Dose Rectum,healthy volunteers [4],1.96E-02 mGy/MBq
same,Dose Red Marrow,healthy volunteers [4],1.16E-02 mGy/MBq
same,Dose Right colon,healthy volunteers [4],1.86E-02 mGy/MBq
same,Dose Salivary Glands,healthy volunteers [4],1.53E-02 mGy/MBq
same,Dose Small Intestine,healthy volunteers [4],1.78E-02 mGy/MBq
same,Dose Spleen,healthy volunteers [4],1.68E-02 mGy/MBq
same,Dose Stomach Wall,healthy volunteers [4],1.77E-02 mGy/MBq
same,Dose Testes,healthy volunteers [4],1.41E-02 mGy/MBq
same,Dose Thymus,healthy volunteers [4],1.31E-02 mGy/MBq
same,Dose Thyroid,healthy volunteers [4],1.96E-02 mGy/MBq
same,Dose Total Body,healthy volunteers [4],1.26E-02 mGy/MBq
same,Dose Urinary Bladder Wall,healthy volunteers [4],8.24E-02 mGy/MBq
same,Effective Dose,healthy volunteers [4],1.67E-02 mGy/MBq
same,effective dose in adrenals,healthy volunteers [4],3.22E-02 mSv/MBq
same,effective dose in kidneys,healthy volunteers [4],2.26E-01 mSv/MBq
same,effective dose in urinary bladder wall,healthy volunteers [4],8.24E-02 mSv/MBq
same,total body effective dose,healthy volunteers [4],1.67E-02 mSv/MBq
same,SUV at 0.25 h,clinical [5]; SUVmean ± SD Brain,0.04 ± 0.01 SUV
same,SUV at 0.5 h,clinical [5]; SUVmean ± SD Brain,0.03 ± 0.01 SUV
same,SUV at 0.25 h,clinical [5]; SUVmean ± SD Colon,1.86 ± 0.31 SUV
same,SUV at 0.5 h,clinical [5]; SUVmean ± SD Colon,1.52 ± 0.36 SUV
same,SUV at 2.5 h,clinical [5]; SUVmean ± SD Colon,0.78 ± 0.16 SUV
same,SUV at 0.25 h,clinical [5]; SUVmean ± SD Eyes,0.36 ± 0.04 SUV
same,SUV at 0.5 h,clinical [5]; SUVmean ± SD Eyes,0.28 ± 0.14 SUV
same,SUV at 1 h,clinical [5]; SUVmean ± SD Eyes,0.71 ± 0.28 SUV
same,SUV at 2.5 h,clinical [5]; SUVmean ± SD Eyes,0.12 ± 0.03 SUV
same,SUV at 0.25 h,clinical [5]; SUVmean ± SD Fat tissue,0.26 ± 0.03 SUV
same,SUV at 0.5 h,clinical [5]; SUVmean ± SD Fat tissue,0.22 ± 0.03 SUV
same,SUV at 1 h,clinical [5]; SUVmean ± SD Fat tissue,0.26 ± 0.02 SUV
same,SUV at 0.25 h,clinical [5]; SUVmean ± SD Kidney,19.3 ± 1.13 SUV
same,SUV at 0.5 h,clinical [5]; SUVmean ± SD Kidney,21.5 ± 1.28 SUV
same,SUV at 1 h,clinical [5]; SUVmean ± SD Kidney,23.4 ± 2.38 SUV
same,SUV at 0.25 h,clinical [5]; SUVmean ± SD Liver,1.68 ± 0.26 SUV
same,SUV at 0.5 h,clinical [5]; SUVmean ± SD Liver,1.11 ± 0.23 SUV
same,SUV at 2.5 h,clinical [5]; SUVmean ± SD Liver,0.65 ± 0.1 SUV
same,SUV at 0.25 h,clinical [5]; SUVmean ± SD Lung,0.65 ± 0.03 SUV
same,SUV at 0.5 h,clinical [5]; SUVmean ± SD Lung,0.58 ± 0.14 SUV
same,SUV at 1 h,clinical [5]; SUVmean ± SD Lung,0.53 ± 0.05 SUV
same,SUV at 0.25 h,clinical [5]; SUVmean ± SD Muscle,1.04 ± 0.1 SUV
same,SUV at 0.5 h,clinical [5]; SUVmean ± SD Muscle,1.04 ± 0.01 SUV
same,SUV at 2.5 h,clinical [5]; SUVmean ± SD Muscle,0.68 ± 0.1 SUV
same,SUV at 0.25 h,clinical [5]; SUVmean ± SD Myocardium,1.69 ± 0.35 SUV
same,SUV at 0.5 h,clinical [5]; SUVmean ± SD Myocardium,0.83 ± 0.13 SUV
same,SUV at 1 h,clinical [5]; SUVmean ± SD Myocardium,0.52 ± 0.01 SUV
same,SUV at 0.25 h,clinical [5]; SUVmean ± SD Oral mucosa,2.6 ± 0.38 SUV
same,SUV at 0.5 h,clinical [5]; SUVmean ± SD Oral mucosa,2.28 ± 0.13 SUV
same,SUV at 1 h,clinical [5]; SUVmean ± SD Oral mucosa,2.12 ± 0.43 SUV
same,SUV at 2.5 h,clinical [5]; SUVmean ± SD Oral mucosa,1.59 ± 0.42 SUV
same,SUV at 0.25 h,clinical [5]; SUVmean ± SD Pancreas,2.46 ± 0.12 SUV
same,SUV at 0.5 h,clinical [5]; SUVmean ± SD Pancreas,1.47 ± 0.24 SUV
same,SUV at 1 h,clinical [5]; SUVmean ± SD Pancreas,1.01 ± 0.11 SUV
same,SUV at 2.5 h,clinical [5]; SUVmean ± SD Pancreas,1.13 ± 0.28 SUV
same,SUV at 0.25 h,clinical [5]; SUVmean ± SD Parotid gland,2.31 ± 0.09 SUV
same,SUV at 0.5 h,clinical [5]; SUVmean ± SD Parotid gland,1.19 ± 0.06 SUV
same,SUV at 1 h,clinical [5]; SUVmean ± SD Parotid gland,1.01 ± 0.1 SUV
same,SUV at 0.25 h,clinical [5]; SUVmean ± SD Spinal Canal(C5),1.17 ± 0.15 SUV
same,SUV at 0.5 h,clinical [5]; SUVmean ± SD Spinal Canal(C5),0.62 ± 0.12 SUV
same,SUV at 2.5 h,clinical [5]; SUVmean ± SD Spinal Canal(C5),0.54 ± 0.15 SUV
same,SUV at 0.25 h,clinical [5]; SUVmean ± SD Spleen,1.95 ± 0.12 SUV
same,SUV at 0.5 h,clinical [5]; SUVmean ± SD Spleen,1.01 ± 0.06 SUV
same,SUV at 1 h,clinical [5]; SUVmean ± SD Spleen,0.76 ± 0.01 SUV
same,SUV at 0.25 h,clinical [5]; SUVmean ± SD Thyroid gland,3.41 ± 0.22 SUV
same,SUV at 0.5 h,clinical [5]; SUVmean ± SD Thyroid gland,1.54 ± 0.29 SUV
same,SUV at 1 h,clinical [5]; SUVmean ± SD Thyroid gland,1.37 ± 0.04 SUV
same,SUV at 2.5 h,clinical [5]; SUVmean ± SD Thyroid gland,1.01 ± 0.37 SUV
